The subject of series [1] is NCI-H82 tumor model. The experiment in a line: Biodistribution of radio-labelled DARPin conjugates in NCI-H82 tumor model. The note with it: mouse, in vivo, iv, 0.01 mg/kg. The method, then:
NCI-H82 tumor model. R2G2 mice were purchased from Envigo. All studies were conducted under the approval of the institutional IACUC committee. Animals were maintained under specific-pathogen-free (SPF) conditions with daily cycles of light and darkness (12 h/12 h), in line with ethical guidelines. No manipulations were performed during the first 5 days after arrival, to allow the animals to acclimatize to the new environment. All mice were monitored daily for assessment of physical condition and general well-being. NCI-H82 cells were purchased from ATCC (Catalog No. HTB-175). Solid xenografts were established by subcutaneous (SQ) injection of NCI-H82 cells in RPMI media mixed 1:1 with Corning® Matrigel® basement membrane matrix (GFR; Corning, Cat No 354230.). Cells were quantified using Countess cell counter. Each mouse was injected SQ with 5×10^6 NCI-H82 cells in 100 μL RPMI/GFR-Matrigel into the right flank of each mouse. Tumor volumes were estimated three times per week through calipering, according to the formula: volume=0.5×length×width^2 and grown until they reached 200-300 mm^3. Tumor-associated antigen level expressed in tumors, tumor vascularization profile and DLL3 soluble form in mouse serum was tested.
Biodistribution study. […] Radio-labeled (Pb-212) DARPin conjugates were then injected at 0.01 mg/kg (10 μCi DARPin conjugates) into the tail vein of R2G2 mice (females) xenografted subcutaneously (at age of about 7 weeks) with NCI-H82 cells (5 million cells, growth factor reduced Matrigel) and bearing tumors (5-10 mm in diameter). […] Biodistribution was monitored at 4 h and 24h post-injection. Mice were euthanized by CO2 inhalation and cervical dislocation. Blood, spleen, kidneys, liver and tumor were extracted, weighed and the radioactivity was determined with a γ-counter counter (such as Wizard^22470, Perkin Elmer). The data were expressed as the % injected dose/gram (% ID/g).
Radio-labeled (Pb-212) DARPin conjugates were then injected at 0.01 mg/kg (10 μCi DARPin conjugates) into the tail vein of R2G2 mice (females) xenografted subcutaneously (at age of about 7 weeks) with NCI-H82 cells (5 million cells, growth factor reduced Matrigel) and bearing tumors (5-10 mm in diameter). Biodistribution was monitored at 4 h and 24h post-injection. Mice were euthanized by CO2 inhalation and cervical dislocation. Kidneys and tumor were extracted, weighed and the radioactivity was determined with a γ-counter counter (such as Wizard^22470, Perkin Elmer). The data were expressed as the % injected dose/gram (% ID/g) and the tumor to kidney (T:K) ratio was determined.
Radio-labelled (Pb-212) DARPin conjugates were then injected at 0.01 mg/kg (10 μCi DARPin conjugates) (i) into the tail vein of R2G2 mice (females) xenografted subcutaneously (at age of about 7 weeks) with NCI-H82 cells (5 million cells, growth factor reduced Matrigel) and bearing tumors (5-10 mm in diameter), and (ii) into the tail vein of athymic nude mice (females) xenografted subcutaneously (at age of about 7 weeks) with hDLL3-MC38 cells (5 million cells, growth factor reduced Matrigel) and bearing tumors (5-10 mm in diameter). Biodistribution was monitored at 4 h and 24h post-injection. Mice were euthanized by CO2 inhalation and cervical dislocation. Blood, bladder, small intestine, colon, spleen, kidneys, liver, lung, heart, tail and tumor were extracted, weighed and the radioactivity was determined with a γ-counter (such as Wizard^22470, Perkin Elmer). The data were expressed as the % injected dose/gram (% ID/g).

The test system of series [2] is hDLL3-MC38 tumor model. Briefly: Biodistribution of radio-labelled DARPin conjugates in hDLL3-MC38 tumor model. Type of series: in vivo, mouse. The note with it: Pb-212 DOTAM conjugate 0.01 mg/kg (10 μCi) i.v., athymic nude mice, s.c. hDLL3-MC38. The text has this:
hDLL3-MC38 tumor model. ATH mice were purchased from Envigo. General handling and maintenance of mice was done as described above for the NCI-H82 tumor model. hDLL3-MC38 cells were purchased from Biocytogen (Catalog No. 311448). […] Cells were quantified using Countess cell counter.
Biodistribution study. […] Based on immunohistochemistry analyses, the hDLL3-MC38 tumors have a higher level of human DLL3 expression than the NCI-H82 tumors described in Example 3 (data not shown). Biodistribution was monitored at 1 h, 4 h and 24h post-injection. Mice were euthanized by CO2 inhalation and cervical dislocation.
Mice were euthanized by CO2 inhalation and cervical dislocation.

Series [3] in a line: Thermal stability by Circular Dichroism (CD) spectroscopy. Type of series: physicochemical. The note with it: CD at 222 nm, 20° C. to 90° C., 2 μM in PBS pH7.4; DARPins with C-terminal Cysteine-containing tag (SEQ ID NOs: 15, 16, 18). Here is the method: Labelling of proteins conjugated to a chelator with a radionuclide may require harsh conditions, including high temperatures. The thermal stability and the propensity to unfold/refold of 2D DARPins MAM279, MAM283 and MAM282 were assessed using Circular Dichroism (CD) spectroscopy.
Samples of the DARPins were diluted to 2 μM in PBS, pH7.4. The assessment was done using a Jasco J-815 spectrophotometer. The Tm (melting temperature) of the selected proteins was determined by CD as a parameter for thermal stability. In brief, the ellipticity was recorded at […] and a temperature range from 20° C. to 90° C. was applied followed by reverse scan to record the refolding behavior. The Tm of the selected ankyrin repeat protein constructs is the midpoint of the protein unfolding. Spectra from 190-250 nm were recorded before and after the temperature scan.
On the technique in general: Circular dichroism is the unequal absorption of left and right circularly polarised light.

B1: MAM279: Two domain (2D) ankyrin repeat protein: serum albumin-specific domain (SEQ ID NO: 7), PT linker, DLL3-specific domain of MAM093 (protein)
chain: DLGKKLLEAARAGQDDEVRELLKAGADVNAKDYFSHTPLHLAARNGHLKIVEVLLKAGADVNAKDFAGKTPLHLAADAGHLEIVEVLLKAGADVNAQDIFGKTPADIAADAGHEDIAEVLQKAAGSPTPTPTTPTPTPTTPTPTPTGSDLGKKLLAAAAQGQDDEVRELLKAGANVNAKDLFGYTPLHLAAWRGHLEIVEVLLKAGADVNAKDAAGETPLHLAAWFGHLEIVEVLLKAGADVNAQDLQGKTPADLAAKEGHEDIAEVLQKAA
modifications: Ankyrin repeat protein (MAM279)
For B1, the “Blood % ID/g” value came out at 23 % ID/g in series [1] (4 h); 13 % ID/g in series [1] (24 h); 21.2 % ID/g in series [2] (4 h, Example 7); 21 % ID/g in series [2] (4 h, Example 9); 8.1 % ID/g in series [2] (24 h, Example 7); 8 % ID/g in series [2] (24 h, Example 9). Besides, the “Kidneys % ID/g” value in series [1] (4 h) was determined as 11 % ID/g; in series [1] (24 h), 25 % ID/g; in series [2] (4 h, Example 7) it was 14.3 % ID/g; in series [2] (4 h, Example 9), 14 % ID/g; in series [2] (24 h, Example 7), 23.3 % ID/g; in series [2] (24 h, Example 9), 23 % ID/g. Besides, the “Tumors % ID/g” value worked out at 8 % ID/g in series [1] (4 h); 29 % ID/g in series [1] (24 h); 20.6 % ID/g in series [2] (4 h, Example 7); 21 % ID/g in series [2] (4 h, Example 9); 57.6 % ID/g in series [2] (24 h, Example 7); 58 % ID/g in series [2] (24 h, Example 9). Further, the “T:K ratio” value turned out to be 1.5 in series [2] (4 h, Example 9) and 2.5 in series [2] (24 h, Example 9). In addition, the “melting temperature (Tm)” value in series [3] is “above 85 °C”.

The record behind these values is patent US20250332297A1, “DLL3-SPECIFIC BINDING CONSTRUCTS AND THEIR USE IN RADIOTHERAPY” (MOLECULAR PARTNERS AG, priority 2024, published 2025).
